The subject of series [1] is CC(C)C[C@H](N)C(=O)Nc1ccc([N+](=O)[O-])cc1. Kind of series: purified protein, by the assay type. The following applies: 25.0 °C.
The test system of series [2] is N=C(N)NCCC[C@H](N)C(=O)Nc1ccc([N+](=O)[O-])cc1. As to the kind of experiment: purified protein, by the assay type. Particulars: other: aa-pNA varied, 3 mM MnCl2, 100 nM PaPepA, pH 8.0, 25 °C, pH 8.0.

For the substance “PaPepA (Pseudomonas aeruginosa UCBPP-PA14)”, the Km in series [1] (other: 5 % PEG 8000, Leu-pNA varied) is 110 µM. Further, the Michaelis constant (Km) in series [1] (other: H2O (0% PEG-8000), Leu-pNA varied) came out at 86.9 µM. For the same substance, in series [2], the Km amounted to 120 ± 20 µM, the kcat came out at 0.052 s⁻¹ and the kcat/Km stood at 440 M⁻¹ s⁻¹.

As a reminder, the Km is the concentration of substrate that gives half-maximal velocity. As a reminder, the kcat is the number of substrate molecules converted per active site and unit of time at saturation. One may read the kcat/Km as the second-order rate constant that governs catalysis at low substrate concentration.

The values above are taken from publication PMC10666288, “Unveiling the Catalytic Mechanism of a Processive Metalloaminopeptidase” (Biochemistry, 2023).
